Experimental data reported in US20040052794A1 (published 2004).
Blank lines part the entries; values can stand above or below the binder they belong to.

Legend:
[1] = biological target: T1, GST-RB18A-N1 (aa 436 to 1566) fusion protein (human, UniProt Q15648 451-1581); test: GST pull-down, quantification of retained protein
T1 construct: D9 cDNA cloned downstream of the glutathione transferase gene in pGEX4T-3; also called GST-RB18A fusion protein; mutant 1; not shown: GST moiety (glutathione transferase of pGEX4T-3) and the vector linker between GST and RB18A
Text: (§1) GST fusion proteins were produced in E. coli strain BL21 and purified on glutathione Sepharose 4B beads (Pharmacia LKB) as described by the manufacturer. […] After washing, pelleting, and boiling in Laemmli buffer, eluted proteins were resolved on 10% SDS/PAGE and visualized by autoradiography.

[2] = biological target: T1, GST-RB18A-N1 (aa 436 to 1566) fusion …; test: GST pull-down of 35S-translated product on glutathione Sepharose beads
Text: as §1

[3] = biological target: human wild-type p53 (product of p53-H8 cDNA, plasmid pSP65-p53H8) (human, UniProt P04637 1-393); test: cell-based or functional assay
Sequence of human wild-type p53 (product of p53-H8 cDNA, plasmid pSP65-p53H8) (P04637 whole entry): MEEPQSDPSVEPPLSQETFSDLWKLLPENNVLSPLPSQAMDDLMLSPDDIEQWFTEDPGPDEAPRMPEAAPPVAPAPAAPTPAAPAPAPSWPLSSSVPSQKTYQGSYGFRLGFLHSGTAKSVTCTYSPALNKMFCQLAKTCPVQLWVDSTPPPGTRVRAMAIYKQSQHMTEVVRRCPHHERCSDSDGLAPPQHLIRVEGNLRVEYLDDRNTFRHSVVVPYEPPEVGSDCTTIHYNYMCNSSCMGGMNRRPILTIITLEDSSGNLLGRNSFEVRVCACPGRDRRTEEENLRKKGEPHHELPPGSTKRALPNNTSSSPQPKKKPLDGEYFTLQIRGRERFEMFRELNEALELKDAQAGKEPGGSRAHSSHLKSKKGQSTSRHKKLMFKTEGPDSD

- molar ratio retained on GST-RB18A [1]: 1 molar ratio
- % of input bound [2]: 10 % of input
B1: in vitro translated product of D9 cDNA (partial RB18A, aa 436 to 1566) (other)
chain: SVSFQHPVNDSLVCVVMDVQGLTHVSCKLYKGLSDALICTDDFIAKVVQRCMSIPVTMRAIRRKAETIQADTPALSLIAETVEDMVKKNLPPASSPGYGMTTGNNPMSGTTTSTNTFPGGPIATLFNMSMSIKDRHESVGHGEDFSKVSQNPILTSLLQITGNGGSTIGSSPTPPHHTPPPVSSMAGNTKNHPMLMNLLKDNPAQDFSTLYGSSPLERQNSSSGSPRMEICSGSNKTKKKKSSRLPPEKPKHQTEDDFQRELFSMDVDSQNPIFDVNMTADTLDTPHITPAPSQCSTPPTTYPQPVPHPQPSIQRMVRLSSSDSIGPDVTDILSDIAEEASKLPSTSDDCPAIGTPLRDSSSSGHSQSTLFDSDVFQTNNNENPYTDPADLIADAAGSPSSDSPTNHFFHDGVDFNPDLLNSQSQSGFGEEYFDESSQSGDNDDFKGFASQALNTLGVPMLGGDNGETKFKGNNQADTVDFSIISVAGKALAPADLMEHHSGSQGPLLTTGDLGKEKTQKRVKEGNGTSNSTLSGPGLDSKPGKRSRTPSNDGKSKDKPPKRKKADTEGKSPSHSSSNRPFTPPTSTGGSKSPGSAGRSQTPPGVATPPIPKITIQIPKGTVMVGKPSSHSQYTSSGSVSSSGSKSHHSHSSSSSSSASTSGKMKSSKSEGSSSSKLSSSMYSSQGSSGSSQSKNSSQSGGKPGSSPITKHGLSSGSSSTKMKPQGKPSSLMNPSLSKPNISPSHSRPPGGSDKLASPMKPVPGTPPSSKAKSPISSGSGGSHMSGTSSSSGMKSSSGLGSSGSLSQKTPPSSNSCTASSSSFSSSGSSMSSSQNQHGSSKGKSPSRNKKPSLTAVIDKLKHGVVTSGPGGEDPLDGQMGVSTNSSSHPMSSKHNMSGGEFQGKREKSDKDKSKVSTSGSSVDSSKKTSESKNVGSTGVAKIIISKHDGGSPSIKAKVTLQKPGESSGEGLRPQMASSKNYGSPLISGSTPKHERGSPSHSKSPAYTPQNLDSESESGSSIAEKSYQNSPSSDDGIRPLPEYSTEKHKKHKKEKKKVKDKDRDRDRDKDRDKKKSHSIKPESWSKSPISSDQSLSMTSNTILSADRPSRLSPDFMIGEEDDDLMDVALIGN
modifications: 35S-methionine labelled
notes: also called 35S-RB18A protein; in vitro translated D9 protein

- activation of the IGF-BP3 promoter (reporter gene in H1299 and K562 cells) [3]: 13 fold
- activation of the MDM2 promoter (reporter gene in H1299 and K562 cells) [3]: 5 fold
- activation of the p21Waf1 promoter (reporter gene in H1299 and K562 cells) [3]: 10 fold
B2: carboxy-terminal domain of RB18A expressed in transfected cells (cDNA nucleotides 3935 to 4933) (other)
chain: LGSSGSLSQKTPPSSNSCTASSSSFSSSGSSMSSSQNQHGSSKGKSPSRNKKPSLTAVIDKLKHGVVTSGPGGEDPLDGQMGVSTNSSSHPMSSKHNMSGGEFQGKREKSDKDKSKVSTSGSSVDSSKKTSESKNVGSTGVAKIIISKHDGGSPSIKAKVTLQKPGESSGEGLRPQMASSKNYGSPLISGSTPKHERGSPSHSKSPAYTPQNLDSESESGSSIAEKSYQNSPSSDDGIRPLPEYSTEKHKKHKKEKKKVKDKDRDRDRDKDRDKKKSHSIKPESWSKSPISSDQSLSMTSNTILSADRPSRLSPDFMIGEEDDDLMDVALIGN
